Data published in PMC3314626, “Crystal Structures of the Tetratricopeptide Repeat Domains of Kinesin Light Chains: Insight into Cargo Recognition Mechanisms” (PLoS ONE, 2012).

Target: KLC1 TPR domain (kinesin light chain 1 tetratricopeptide repeat domain) (human) (UniProt Q07866)
Test: ITC; protein-protein: 15 uM KLC1-TPR and 160 uM ALC1 protein; 25 C; 30 mM HEPES 7.4, 200 mM NaCl, 0.5 mM TCEP; one-site binding model

Kd: 2400 nM | stoichiometry N: 0.85
Substance: cytosolic domain of ALC1 protein (alcadein-1) (domain or fragment)
